We go through seven substances from PMC4333373.

pKd: −log10 of the molar value.

Data set [1] deals with T1, ParB (Spo0J) (Bacillus subtilis 168) (UniProt P26497).
T1 sequence: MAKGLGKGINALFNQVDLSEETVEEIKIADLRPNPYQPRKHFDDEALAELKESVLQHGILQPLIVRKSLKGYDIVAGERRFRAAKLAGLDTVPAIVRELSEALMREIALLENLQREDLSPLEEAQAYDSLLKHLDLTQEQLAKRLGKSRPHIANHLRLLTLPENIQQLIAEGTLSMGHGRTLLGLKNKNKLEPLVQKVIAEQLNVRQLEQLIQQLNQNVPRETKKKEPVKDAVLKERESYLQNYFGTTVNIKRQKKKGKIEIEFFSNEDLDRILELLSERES
Put plainly: EMSA. As to conditions: 50 mM Hepes-KOH pH 7.5, 100 mM KCl, 2.5 mM MgCl2, 0.1 mg/ml BSA, 1 mM DTT, 20 nM DNA, EMSA also 2.5% Ficoll, room temperature 30 min then ice 5 min, gel at 4 C.

The target in data set [2] is T1, ParB (Spo0J) (Bacillus subtilis 168). Put plainly: fluorescence intensity (Cy3). As to conditions: 50 mM Hepes-KOH pH 7.5, 100 mM KCl, 2.5 mM MgCl2, 0.1 mg/ml BSA, 1 mM DTT, 20 nM DNA, EMSA also 2.5% Ficoll, room temperature 30 min then ice 5 min, gel at 4 C. (In general: In EMSA bound probe runs differently from free probe, usually more slowly.)

For the substance “GGTACAAAAAGTGATTGCGGAGCAGCTCAATGTTCGCCAACTTGAGCAGCTGATTCAGCAGTTGAATCAGAATGTTCCACGTGAAACAAAGAAAAAAGAACCTGTGAAAGATGCGGTTCTAAAAGAACGGGAATCCTATCTCCAAAA (double strand) [147-bp parS]”, in data set [1], the pKd is 7.00 and the binding entry is “binds”. Cy3 147-bp parS: the pKd in data set [2] was 6.62.

For the substance “TTTTGGAGATAGGATTCCCGTTCTTTTAGAACCGCATCTTTCACAGGTTCTTTTTTCTTTGTCTCCCTGGGCACGTTCTGATTCAACTGCTGAATCAGCTGCTCAAGTTGGCGAACATTGAGCTGCTCCGCAATCACTTTTTGTACC (double strand) [Cy3 147-bp non-specific (scrambled parS)]”, in data set [2], the pKd was 6.56. 147-bp parS: the pKd in data set [1] (specific complex, TBM gel, 2.5 mM Mg2+) was 7.00. Turning to “TTTTGGAGATAGGATTCCCGTTCTTTTAGAACCGCATCTTTCACAGGTTCTTTTTTCTTTGTCTCCCTGGGCACGTTCTGATTCAACTGCTGAATCAGCTGCTCAAGTTGGCGAACATTGAGCTGCTCCGCAATCACTTTTTGTACC (double strand) [147-bp non-specific (scrambled parS)]”, the binding entry in data set [1] was “binds”.

Take “TTTTGGAGATAGGATTCCCGTTCTTTTAGAACCGCATCTTTCACAGGTTCTTTTTTCTTTGTTTCACGTGGAACATTCTGATTCAACTGCTGAATCAGCTGCTCAAGTTGGCGAACATTGAGCTGCTCCGCAATCACTTTTTGTACC (double strand) [Cy3 147-bp parS]”: in data set [2], the pKd is 6.62. Turning to “Cy3 147-bp non-specific (scrambled parS)”, the pKd in data set [2] (apparent Kd of ParB2, Hill h = 3.4 ± 0.4, 2.5 mM Mg2+) was 6.56.

One may read the pKd as the Kd on a negative log10 scale, so that one unit is a factor of ten.
